The values that follow come from article PMC3492541 (Nature structural & molecular biology, 2012).

B1: GST 7D (GST tail phosphomimetic in both zone 1 and zone 2) (domain or fragment, human, UniProt O14777 1-80, looked up)
chain: MKRSDVSDGGAGRLDMQELRSQDVNKQGLYTPQTKEKPTFGKLDINKPTSERKVDLFGKRTDGHGSRNDQLGIFSSSEKI
B2: GST 4D (GST tail phosphomimetic in zone 1) (domain or fragment, human, UniProt O14777 1-80, looked up)
chain: MKRSSVSSGGAGRLSMQELRSQDVNKQGLYTPQTKEKPTFGKLDINKPTSERKVDLFGKRTDGHGSRNDQLGIFSSSEKI
B3: GST tail phosphomimetic in zone 2 (domain or fragment, human, UniProt O14777 1-80, looked up)
chain: MKRSDVSDGGAGRLDMQELRSQDVNKQGLYTPQTKEKPTFGKLSINKPTSERKVSLFGKRTSGHGSRNSQLGIFSSSEKI

In this assay the target is taxol-stabilized microtubules (UniProt Q6B856 1-439). Nature of the assay: co-sedimentation.
Consider B1, for which the “reduction of microtubule binding relative to GST 1–80” value worked out at 80%.
The figure for B2 is 60%; for B3 it is 20%.
